Experimental data reported in patent US20230340143A1 (published 2023).
Residue numbers refer to the chain shown, from its start. Names may count otherwise. Each block holds one binder with its values, some of them ahead of it.

How the values were obtained:
CD39 mutant 19 = target: T1, CD39 mutant 19 (human, UniProt P49961 1-510); assay: flow cytometry on HEK-293T cells expressing mutant 19
T1 construct: Expressed on transfected HEK-293T cells; also called M19
T1 chain: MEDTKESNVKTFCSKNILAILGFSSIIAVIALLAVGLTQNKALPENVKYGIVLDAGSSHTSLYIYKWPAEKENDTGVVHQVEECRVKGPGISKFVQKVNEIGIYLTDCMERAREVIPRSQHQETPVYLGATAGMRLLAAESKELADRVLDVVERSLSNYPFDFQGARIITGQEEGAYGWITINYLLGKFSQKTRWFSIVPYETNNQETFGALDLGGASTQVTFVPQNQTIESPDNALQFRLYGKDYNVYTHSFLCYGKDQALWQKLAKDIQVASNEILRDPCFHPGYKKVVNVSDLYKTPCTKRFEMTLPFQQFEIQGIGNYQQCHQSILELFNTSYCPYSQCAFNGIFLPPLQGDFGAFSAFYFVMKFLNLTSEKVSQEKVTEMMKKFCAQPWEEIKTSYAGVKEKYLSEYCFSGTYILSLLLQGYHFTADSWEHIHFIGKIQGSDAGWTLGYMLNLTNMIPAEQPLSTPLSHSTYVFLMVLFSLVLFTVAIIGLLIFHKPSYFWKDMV
Experimental: (§1) In order to define the epitopes of the further anti-CD39 antibodies of Example 5, they were tested for loss of binding to the panel of CD39 mutants as described in Example 1 and Table 1. Mutants were transfected in Hek-293T cells, as shown in the table 1, using numbering of SEQ ID NO: 1.Dose-ranges of test antibodies (10 - 2.5 - 0.625 - 0.1563 - 0.0391 - 0.0098 - 0.0024 - 0.0006 µg/ml) are tested on the 20 generated mutants by flow cytometry.

[1] = target: T2, human CD39 expressed at the cell surface (human, UniProt P49961 1-510); assay: flow cytometry screen on CHO expressing huCD39 against wild type CHO
T2 construct: On CHO transfectants, HEK-293T transfectants or endogenous on Ramos cells; also called huCD39; CHO-huCD39
T2 sequence: T1 chain with A138R, A139M, K142E
Experimental: In initial immunization protocols, the primary screen involved testing supernatant (SN) of growing clones by flow cytometry using wild type CHO and CHO expressing huCD39 cell lines. Cells were stained with 0.1 µM and 0.005 µM CFSE, respectively. […] For antibodies that bound huCD39, supernatants were then screened for inhibition of the enzymatic activity of soluble CD39 using the screening assay developed and described above (Methods).
In view of the absence of antibodies able to inhibit soluble CD39, a further immunization was carried out with a screening protocol designed to favor the generation of antibodies that bind the active site of CD39 as identified by the epitope of antibody BY40. Briefly, the primary screen involved testing supernatant (SN) of growing clones by flow cytometry using wild type CHO and CHO expressing huCD39 cell lines, as in the preceding immunizations, followed by screening for loss of binding Hek-293T cells expressing CD39 mutant 5, compared to wild-type CD39, as shown in Table 1. Mutant 5 has substitutions at residues Q96, N99, E143 and R147.

CD39 mutant 5 [2] = target: T3, CD39 mutant 5 (human, UniProt P49961 1-510); assay: flow cytometry on HEK-293T cells expressing mutant 5
T3 construct: Expressed on transfected HEK-293T cells; also called M5
T3 chain: T1 chain with Q96A, N99A, A138R, A139M, K142E, E143A, R147E
Experimental: as §1

Human CD39-L1 = target: T4, Human CD39-L1 (human, UniProt Q9Y5L3 1-495); assay: ELISA, recombinant isoform coated
T4 construct: Recombinant protein coated in ELISA; also called NTPDase2; ENTPD2
T4 sequence: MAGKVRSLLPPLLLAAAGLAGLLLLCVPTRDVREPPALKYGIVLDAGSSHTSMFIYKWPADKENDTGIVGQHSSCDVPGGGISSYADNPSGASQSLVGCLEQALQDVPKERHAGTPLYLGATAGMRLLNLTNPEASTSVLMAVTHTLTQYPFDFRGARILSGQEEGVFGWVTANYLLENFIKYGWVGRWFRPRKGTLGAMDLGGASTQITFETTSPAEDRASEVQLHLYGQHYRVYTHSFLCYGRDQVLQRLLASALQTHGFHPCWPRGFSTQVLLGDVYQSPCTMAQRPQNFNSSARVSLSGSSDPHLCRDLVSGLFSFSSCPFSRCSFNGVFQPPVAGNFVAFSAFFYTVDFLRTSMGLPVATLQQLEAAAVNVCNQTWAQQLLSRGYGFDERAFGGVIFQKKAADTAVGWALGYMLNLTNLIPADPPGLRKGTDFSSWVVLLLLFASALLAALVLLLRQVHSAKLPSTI
Experimental: Wells were washed in TBS Tween 20, and further saturated 2H at RT in TBS Blocking buffer. Dose range concentration of primary antibody was incubated in TBS blocking buffer for 2 h at RT. Wells were washed in TBS Tween 20. […] Optical density was measured on Enspire™ at OD=450.

CD39 mutant 5 [3] = target: T3, CD39 mutant 5; assay: flow cytometry screen on HEK-293T cells expressing CD39 mutant 5

B1: antibody I-396 (antibody, V domains shown)
VH: EVQLQQSGAELVKPGASVKLSCIVSGFNIKDTYINWVKQRPEQGLEWIGRIDPANGNTKYDPKFQGKATMTSDTSSNTAYLHLSSLTSDDSAVYYCARWGYDDEEADYFDSWGQGTTLTVSS
VL: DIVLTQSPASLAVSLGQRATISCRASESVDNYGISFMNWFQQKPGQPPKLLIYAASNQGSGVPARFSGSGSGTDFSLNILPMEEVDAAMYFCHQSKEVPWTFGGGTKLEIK
notes: Hybridoma antibody purified on protein A
binding result (CD39 mutant 19): binds
binding result [1]: binds
binding result (CD39 mutant 5 [2]): binds

B2: antibody I-395 (antibody, V domains shown)
VH: EVQLQQSGPELVKPGASVRMSCKASGYTFTDYNMHWVKKNHGKGLEWIGYINPNNGGTTYNQKFKGKATLTVNTSSKTAYMELRSLTSEDSAVYYCTRGGTRFASWGQGTLVTVSA
VL: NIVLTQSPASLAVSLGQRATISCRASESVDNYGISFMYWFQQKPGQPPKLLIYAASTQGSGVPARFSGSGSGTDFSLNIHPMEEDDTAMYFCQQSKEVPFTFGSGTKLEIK
notes: as for B1
binding result [1]: binds

Other lines, results leading:

binding result [1]: binds
B3: antibody I-399 (antibody, V domains shown)
VH: PVQLQQPGAEVVMPGASVKLSCKASGYTFTSFWMNWMRQRPGQGLEWIGEIDPSDFYTNSNQRFKGKATLTVDKSSSTAYMQLSSLTSEDSAVYFCARGDFGWYFDVWGTGTSVTVSS
VL: EIVLTQSPTTMTSSPGEKITFTCSASSSINSNYLHWYQQKPGFSPKLLIYRTSNLASGVPTRFSGSGSGTSYSLTIGTMEAEDVATYYCQQGSSLPRTFGGGTKLEIK
notes: as for B1

binding result (Human CD39-L1): no binding
binding result (CD39 mutant 5 [3]): binds
B4: antibody I-394 (antibody, V domains shown)
VH: EVQLQQSGPELVKPGASVKMSCKASGYTFTDYNMHWVKQSHGRTLEWIGYIVPLNGGSTFNQKFKGRATLTVNTSSRTAYMELRSLTSEDSAAYYCARGGTRFAYWGQGTLVTVSA
VL: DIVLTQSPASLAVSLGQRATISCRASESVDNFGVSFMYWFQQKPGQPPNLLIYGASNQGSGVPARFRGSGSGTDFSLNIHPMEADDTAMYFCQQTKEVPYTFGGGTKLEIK
notes: Mouse hybridoma antibody; also produced with human IgG1 constant domains carrying L234A/L235E/G237A/A330S/P331S (Kabat EU) and a huCk constant domain
